Molecular target: His-UPCP (HIV | human)
Experiment: MST

B1: Flag-PTBP1 (natural protein)
chain: not shown
- Kd: 4.63 µM

— paper PMC10154249 (2023)
